Columns and labels:
p97 (melanotransferrin) [1] = target: p97 (melanotransferrin) (UniProt P08582); assay: p97-coated plate, scFv-BLA culture broth, bound BLA activity (nitrocefin, 490 nm); ratio T1 (1 h dissociation)/T0 of mutant over parent; pH 7.4
p97 (melanotransferrin) [2] = target: p97 (melanotransferrin) (UniProt P08582); assay: p97-coated plate, scFv-BLA culture broth, bound BLA activity (nitrocefin, 490 nm); ratio T1 (1 h dissociation)/T0 of mutant over parent; pH 6.5

Chain of UniProt P08582 (P08582 20-709 limits assumed): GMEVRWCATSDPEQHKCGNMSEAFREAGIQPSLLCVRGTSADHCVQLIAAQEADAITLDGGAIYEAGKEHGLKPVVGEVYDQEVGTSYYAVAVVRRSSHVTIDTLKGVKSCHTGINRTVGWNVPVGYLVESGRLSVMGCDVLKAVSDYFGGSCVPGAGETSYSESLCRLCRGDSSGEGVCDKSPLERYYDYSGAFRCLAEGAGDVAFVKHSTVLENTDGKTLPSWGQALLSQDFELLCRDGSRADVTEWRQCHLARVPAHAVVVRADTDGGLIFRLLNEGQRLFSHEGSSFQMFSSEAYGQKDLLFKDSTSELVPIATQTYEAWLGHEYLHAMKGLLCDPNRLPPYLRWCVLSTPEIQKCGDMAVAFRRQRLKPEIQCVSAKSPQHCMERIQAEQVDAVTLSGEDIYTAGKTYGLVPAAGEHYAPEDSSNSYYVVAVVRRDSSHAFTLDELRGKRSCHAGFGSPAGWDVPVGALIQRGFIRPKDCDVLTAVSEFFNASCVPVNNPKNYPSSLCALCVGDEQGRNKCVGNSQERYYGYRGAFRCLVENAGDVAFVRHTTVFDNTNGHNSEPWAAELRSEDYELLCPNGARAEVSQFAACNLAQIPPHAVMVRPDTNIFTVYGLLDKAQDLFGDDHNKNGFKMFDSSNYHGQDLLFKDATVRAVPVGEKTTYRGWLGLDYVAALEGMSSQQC

Substance: ME43 (SGN-17 scFv-BLA, heavy chain K64 to His)
- Index pH7.4 (p97 (melanotransferrin) [1]): 0.61
- Index pH6.5 (p97 (melanotransferrin) [2]): 0.65

Substance: ME61 (SGN-17 scFv-BLA, light chain T96 to His)
- Index pH7.4 (p97 (melanotransferrin) [1]): 0.82
- Index pH6.5 (p97 (melanotransferrin) [2]): 0.81

Substance: ME50 (SGN-17 scFv-BLA, heavy chain Y103 to His)
- Index pH7.4 (p97 (melanotransferrin) [1]): 0.33

Substance: ME44 (SGN-17 scFv-BLA, heavy chain R97 to His)
- Index pH7.4 (p97 (melanotransferrin) [1]): 0.24

Substance: ME64 (SGN-17 scFv-BLA, light chain P99 to His)
- Index pH7.4 (p97 (melanotransferrin) [1]): 0.35

Substance: ME46 (SGN-17 scFv-BLA, heavy chain T99 to His)
- Index pH7.4 (p97 (melanotransferrin) [1]): 0.38
- Index pH6.5 (p97 (melanotransferrin) [2]): 0.09

Substance: ME53 (SGN-17 scFv-BLA, heavy chain M106 to His)
- Index pH7.4 (p97 (melanotransferrin) [1]): 0.97
- Index pH6.5 (p97 (melanotransferrin) [2]): 0.8

Substance: ME66 (SGN-17 scFv-BLA, light chain T101 to His)
- Index pH7.4 (p97 (melanotransferrin) [1]): 1.36
- Index pH6.5 (p97 (melanotransferrin) [2]): 1.73

Substance: ME51 (SGN-17 scFv-BLA, heavy chain Y104 to His)
- Index pH7.4 (p97 (melanotransferrin) [1]): 0.26

Substance: ME63 (SGN-17 scFv-BLA, light chain V98 to His)
- Index pH7.4 (p97 (melanotransferrin) [1]): 0.21

Substance: ME55 (SGN-17 scFv-BLA, heavy chain Y108 to His)
- Index pH7.4 (p97 (melanotransferrin) [1]): 0.8
- Index pH6.5 (p97 (melanotransferrin) [2]): 0.7

Substance: ME60 (SGN-17 scFv-BLA, light chain S95 to His)
- Index pH7.4 (p97 (melanotransferrin) [1]): 1.04
- Index pH6.5 (p97 (melanotransferrin) [2]): 1.09

Substance: ME58 (SGN-17 scFv-BLA, light chain R58 to His)
- Index pH7.4 (p97 (melanotransferrin) [1]): 0.92
- Index pH6.5 (p97 (melanotransferrin) [2]): 0.76

Substance: ME54 (SGN-17 scFv-BLA, heavy chain D107 to His)
- Index pH7.4 (p97 (melanotransferrin) [1]): 0.41
- Index pH6.5 (p97 (melanotransferrin) [2]): 0.7

Substance: ME56 (SGN-17 scFv-BLA, heavy chain W109 to His)
- Index pH7.4 (p97 (melanotransferrin) [1]): 0.57
- Index pH6.5 (p97 (melanotransferrin) [2]): 0.41

Substance: ME47 (SGN-17 scFv-BLA, heavy chain L100 to His)
- Index pH7.4 (p97 (melanotransferrin) [1]): 0.24

Substance: ME59 (SGN-17 scFv-BLA, light chain Q94 to His)
- Index pH7.4 (p97 (melanotransferrin) [1]): 0.28

Substance: ME48 (SGN-17 scFv-BLA, heavy chain A101 to His)
- Index pH7.4 (p97 (melanotransferrin) [1]): 0.49
- Index pH6.5 (p97 (melanotransferrin) [2]): 0.33
